From PMC11362571, “Multistage protective anti-CelTOS monoclonal antibodies with cross-species sterile protection against malaria” (Nature Communications, 2024)

B1: monoclonal antibody 7g7 (IgG) [mouse] / P. vivax CelTOS (Sal-1, PVX_123510, residue L36-D196) [P. vivax] (parent complex)
chain 1: EIQLQQSGPELVKPGASVKVSCKASGYSFTDYNMYWVKQSHGKSLEWIGYIDPYNGGTRYNQKFRDKATLTVDKSSSTAFMHLNSLTSEDSAVYYCARGYYYGNPLHFDVWGAGTTVTVSSAKTTPPSVYPLAPGSAAQTNSMVTLGCLVKGYFPEPVTVTWNSGSLSSGVHTFPAVLQSDLYTLSSSVTVPSSTWPSETVTCNVAHPASSTKVDKKIVPR
chain 2: QIVLTQSPAIMSASPGEKVTMTCSASSSVSYIHWYQQKSGTSPKRWIYDTSKLASGVPARFSGSGSGTSYSLTISSMEAEDAATYYCQQWISYPATFGAGTKLELKRADAAPTVSIFPPSSEQLTSGGASVVCFLNNFYPKDINVKWKIDGSERQNGVLNSWTDQDSKDSTYSMSSTLTLTKDEYERHNSYTCEATHKTSTSPIVKSFNRNEC
chain 3: LRGKSGSTASSSLEGGSEFSERIGNSLSSFLSESASLEVIGNELADNIANEIVSSLQKDSASFLQSGFDVKTQLKATAKKVLVEALKAALEPTEKIVASTIKPPRVSEDAYFLLGPVVKTLFNKVEDVLHKPIPDTIWEYESKGSLEEEEAEDEFSDELLD
B2: monoclonal antibody 4h12 (IgG) [mouse] / P. falciparum CelTOS (3D7, PF3D7_1216600, residue F25-D182) [P. falciparum] (parent complex)
chain 1: QVQLQQSGPELVKPGASVKISCKASGYALSSSWLNWVKQRPGQGLEWIGRIFPGDGDTNYNGKFKGKATLTADKSSSTAYLQLSSLTSVDSAVYFCARGGTVVFDYWGQGTTLTVSSAKTTPPSVYPLAPGSAAQTNSMVTLGCLVKGYFPEPVTVTWNSGSLSSGVHTFPAVLQSDLYTLSSSVTVPSSTWPSETVTCNVAHPASSTKVDKKIVPRD
chain 2: DIVMTQSHKFMSTSVGDRVNITCKASQDVGIAVAWYQQRPGQSPKLLIYWASKRHTGVHDRFTGTGSGTDFTLTISTVQSEDLADYFCQQYSNSLTFGAGTTLELSRADAAPTVSIFPPSSEQLTSGGASVVCFLNNFYPKDINVKWKIDGSERQNGVLNSWTDQDSKDSTYSMSSTLTLTKDEYERHNSYACEATHKTSTSPIVKSFNR
chain 3: FRGNNGHNSSSSLYNGSQFIEQLNNSFTSAFLESQSMNKIGDDLAETISNELVSVLQKNSPTFLESSFDIKSEVKKHAKSMLKELIKVGLPSFENLVAENVKPPKVDPATYGIIVPVLTSLFNKVETAVGAKVSDEIWNYNSPDVSESEESLSDDFFD

Variants of: B1
Assay: ELISA; parent: 100; read off a plot

In order of rising percent of parent:
1. chain 3 L129A, chain 3 H130A, chain 3 K131A  ~1%
2. chain 3 W138A, chain 3 E139A, chain 3 Y140A  ~1%
3. chain 3 P132A, chain 3 I133A, chain 3 P134A  ~1%
4. chain 3 F112A, chain 3 L113A, chain 3 L114A  ~50%
5. chain 3 E108A, chain 3 D109A  ~68%
6. chain 3 R105A, chain 3 V106A, chain 3 S107A  ~77%
7. chain 3 S32A, chain 3 E33A, chain 3 S34A  ~83%
8. chain 3 K102A, chain 3 P103A, chain 3 P104A  ~86%
9. chain 3 S36A, chain 3 L37A  ~93%
10. chain 3 G115A, chain 3 P116A, chain 3 V117A  ~94%
11. chain 3 G16A, chain 3 S17A, chain 3 E18A  ~98%
12. chain 3 Q57A, chain 3 K58A, chain 3 D59A  ~98%
13. chain 3 G67A, chain 3 F68A, chain 3 D69A  ~99%
14. chain 3 E14A, chain 3 G15A, chain 3 G16A  ~100%
15. chain 3 F63A, chain 3 L64A, chain 3 Q65A  ~100%
16. chain 3 S60A, chain 3 S62A  ~100%
17. chain 3 S29A, chain 3 F30A, chain 3 L31A  ~100%

Variants of: B2
Assay: ELISA; parent: 100; read off a plot

In order of rising percent of parent:
1. chain 3 F63A, chain 3 L64A, chain 3 E65A  ~0%
2. chain 3 Q57A, chain 3 K58A, chain 3 N59A  ~1%
3. chain 3 S60A, chain 3 P61A, chain 3 T62A  ~27%
4. chain 3 I70A, chain 3 K71A, chain 3 S72A, chain 3 E73A  ~75%
5. chain 3 L32A, chain 3 E33A, chain 3 S34A  ~91%
6. chain 3 S29A, chain 3 F31A  ~92%
7. chain 3 G16A, chain 3 S17A, chain 3 Q18A  ~93%
8. chain 3 W138A, chain 3 N139A, chain 3 Y140A  ~93%
9. chain 3 S67A, chain 3 F68A, chain 3 D69A  ~94%
10. chain 3 Y14A, chain 3 N15A, chain 3 G16A  ~96%
11. chain 3 P108A  ~96%
12. chain 3 D135A, chain 3 E136A, chain 3 I137A  ~98%
13. chain 3 G112A, chain 3 I113A, chain 3 I114A  ~98%
14. chain 3 K132A, chain 3 V133A, chain 3 S134A  ~99%
15. chain 3 Q35A, chain 3 S36A, chain 3 M37A  ~100%
16. chain 3 V129A, chain 3 G130A  ~100%
